From US11491212

B1: FIXa-Y155F/K247N/N249S/R318Y/R338E/E410N (protein)
chain 1: not shown
chain 2: not shown
B2: FIXa-Y155F/K247N/N249S/R318Y/R338E/R403E/E410N (protein)
chain 1: not shown
chain 2: not shown
B3: FIXa-R318Y/R338E/R403E/E410N/T412V (protein)
chain 1: not shown
chain 2: not shown
B4: FIXa-K247N/N249S/N260S/R318Y/R338E/R403E/E410N (protein)
chain 1: not shown
chain 2: not shown
B5: FIXa-R318Y/R338E/T343R/R403E/E410N (protein)
chain 1: not shown
chain 2: not shown
B6: FIXa-I251S/R318Y/R338E/E410N (protein)
chain 1: not shown
chain 2: not shown
B7: FIXa-K228N/K247N/N249S/R318Y/R338E/R403E/E410N (protein)
chain 1: not shown
chain 2: not shown
B8: FIXa-R318Y/R338E/R403E/E410S (protein)
chain 1: not shown
chain 2: not shown
B9: FIXa-D104N/K106S/Y155F/K247N/N249S/R318Y/R338E/R403E/E410N (protein)
chain 1: not shown
chain 2: not shown
B10: FIXa-R318Y/R338E/E410N/T412V (protein)
chain 1: not shown
chain 2: not shown
B11: FIXa-D104N/K106S/K228N/K247N/N249S/R318Y/R338E/R403E/E410N (protein)
chain 1: not shown
chain 2: not shown
B12: FIXa-R318Y/R338E/R403E/E410N/T412A (protein)
chain 1: not shown
chain 2: not shown

Chain of Factor X (FX), P00742 (P00742 whole entry, looked up): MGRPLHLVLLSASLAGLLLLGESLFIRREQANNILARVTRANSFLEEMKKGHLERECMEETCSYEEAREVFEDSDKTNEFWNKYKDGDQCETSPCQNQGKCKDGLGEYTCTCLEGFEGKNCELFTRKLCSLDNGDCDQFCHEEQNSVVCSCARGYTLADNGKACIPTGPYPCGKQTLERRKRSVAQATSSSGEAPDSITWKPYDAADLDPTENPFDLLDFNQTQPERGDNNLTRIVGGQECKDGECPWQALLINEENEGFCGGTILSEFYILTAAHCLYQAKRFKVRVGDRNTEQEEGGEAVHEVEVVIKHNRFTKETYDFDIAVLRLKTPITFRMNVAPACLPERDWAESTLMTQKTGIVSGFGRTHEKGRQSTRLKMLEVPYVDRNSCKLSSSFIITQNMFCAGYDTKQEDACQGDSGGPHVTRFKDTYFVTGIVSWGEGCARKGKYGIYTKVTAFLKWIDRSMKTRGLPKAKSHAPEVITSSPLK
Chain of Factor X, P00742 (P00742 whole entry, looked up): as above

Protein	kcat (Factor X, P00742)	% of WT kcat/KM (against Catalyst Biosciences WT FIXa) (Factor X (FX), P00742)	KM (Factor X (FX), P00742)	kcat/KM for activation of FX by FIXa in the Xase complex (FVIIIa, PC/PS vesicles, Ca2+), fluorogenic Spectrafluor FXa read-out (Factor X (FX), P00742)	kcat/KM (Factor X, P00742)	kcat (Factor X (FX), P00742)	% of WT kcat/KM (against Catalyst Biosciences WT FIXa), FX activation in the Xase complex (Factor X (FX), P00742)	KM (nM) for activation of FX by FIXa in the Xase complex (FVIIIa, PC/PS vesicles, Ca2+), fluorogenic Spectrafluor FXa assay (Factor X (FX), P00742)	kcat/KM for FX activation by FIXa in the Xase complex (FVIIIa, PC/PS vesicles, Ca2+), indirect fluorogenic Spectrafluor FXa assay (Factor X (FX), P00742)
B1	4.5 s⁻¹	717%	0.0147 µM	3.3e+08 M⁻¹ s⁻¹					
B2	6.2 s⁻¹	405%	0.0363 µM	1.9e+08 M⁻¹ s⁻¹					
B3			0.0483 µM		1.6e+08 M⁻¹ s⁻¹	7 s⁻¹			
B4			0.0474 µM		6.7e+07 M⁻¹ s⁻¹	3.4 s⁻¹	217%	62.2 nM	9.7e+07 M⁻¹ s⁻¹
B5			0.0247 µM		4.2e+08 M⁻¹ s⁻¹	9.7 s⁻¹	1217%	22.3 nM	5.4e+08 M⁻¹ s⁻¹
B6	6.4 s⁻¹	849%	0.0161 µM	3.9e+08 M⁻¹ s⁻¹					
B7	7.1 s⁻¹	352%	0.0497 µM	1.6e+08 M⁻¹ s⁻¹					
B8	7.4 s⁻¹	458%	0.0364 µM	2.1e+08 M⁻¹ s⁻¹					
B9	6.9 s⁻¹	292%	0.0518 µM	1.3e+08 M⁻¹ s⁻¹					
B10			0.0236 µM		2.6e+08 M⁻¹ s⁻¹	5.2 s⁻¹	536%		2.4e+08 M⁻¹ s⁻¹
B11	6.1 s⁻¹		0.0533 µM		1.1e+08 M⁻¹ s⁻¹				
B12			0.0344 µM		2.5e+08 M⁻¹ s⁻¹	7.8 s⁻¹			
